Biological target: T1, Vesicular Stomatitis Virus Glycoprotein (VSV-G) (Vesicular Stomatitis Virus, UniProt P03522 17-511)
T1 construct: whole, on cells
Test: flow cytometry, VSV-G-transfected 293T cells (FIG. 4C)

T1 sequence (P03522 17-511): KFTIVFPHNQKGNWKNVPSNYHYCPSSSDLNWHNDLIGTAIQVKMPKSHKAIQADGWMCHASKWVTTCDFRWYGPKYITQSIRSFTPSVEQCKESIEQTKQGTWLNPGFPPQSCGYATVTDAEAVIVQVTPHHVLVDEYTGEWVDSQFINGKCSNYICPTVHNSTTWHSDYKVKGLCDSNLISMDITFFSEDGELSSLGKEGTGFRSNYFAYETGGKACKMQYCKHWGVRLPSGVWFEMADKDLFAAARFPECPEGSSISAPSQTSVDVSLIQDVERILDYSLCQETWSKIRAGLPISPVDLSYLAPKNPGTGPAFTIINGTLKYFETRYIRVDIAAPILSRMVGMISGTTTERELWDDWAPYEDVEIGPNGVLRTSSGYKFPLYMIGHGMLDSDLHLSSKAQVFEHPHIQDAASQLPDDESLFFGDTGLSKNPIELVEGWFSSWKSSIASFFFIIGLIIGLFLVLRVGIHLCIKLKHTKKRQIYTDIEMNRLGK

B1: monoclonal antibody MIB22 (antibody, V domains shown)
VH: EVQLVQSGAELKKPGSSVKVSCKASGGTFVGYGVSWVRQVPGHGPEWMGGFSPISNTANYAERFQGRVTMIVDGSTSTAYMELRSLRSEDTAIYYCARSCDFWNAYYNNWFDPWGQGTLVTVSS
VL: AQSALTQPASVSGSPGQSITISCTGTSSDFADYNSVSWYQQHPGKAPKLLIFDVNDRPSGVSHRFSGSKSGNTASLTISGLQAEDESDYYCTSYTICNSYVFGTGTKVTVLG
notes: also called MIB22 IgG; first antibody
B1: no binding (tested: 1 to 15 µg/ml).
